The target of assay [1] is T1, human CD40 antigen (ACROBiosystems) (human, UniProt P25942 21-193).
T1 construct: Bought antigen coated on ELISA plates; construct not described
As to the kind of experiment: bridging ELISA: coated human CD40, serially diluted bispecific antibody, detection with biotin-labeled human PD-L1 and streptavidin-HRP, OD450. As to the method: Antigen human CD40 (purchased from ACROBiosystems) was coated with 1 μg/mL carbonate buffer (pH=9.6) in an ELISA plate at 100 μL per well, followed by incubation at 4° C. overnight. The wells were washed 5 times with PBST. 300 μL/well of PBST containing 1% BSA was added to block the wells, and the plate was incubated at room temperature for 1 hour. The wells were washed 5 times with PBST. […] The wells were washed 5 times with PBST. Biotin-labeled human PD-L1 (FutureGen Biopharmaceutical) diluted with PBST containing 1% BSA was added at 100 μL per well, and the plate was incubated at room temperature for 1 hour. The wells were washed 5 times with PBST. Streptavidin-HRP (BioLegend, Cat. No. 405210) diluted with PBST containing 1% BSA was added at 100 μL per well, and the plate was incubated at room temperature for 30 minutes. Colorimetric substrate TMB was added at 100 μL per well and allowed to develop color at room temperature for 10 minutes, followed by the addition of 1 M sulfuric acid to terminate the reaction. The OD_[…] was read on a microplate reader to analyze the results, and the EC₅₀ was calculated using a 4-parameter fit binding curve.
Background: ELISA stands for enzyme-linked immunosorbent assay.

Assay [2] has as its target T2, mouse PD-L1 antigen (ACROBiosystems) (mouse, UniProt Q9EP73 19-239).
T2 construct: Bought antigen coated on ELISA plates; construct not described
As to the kind of experiment: ELISA, coated antigen. As to the method: (§1) The binding ability of bispecific antibody to human PD-L1 and human CD40, as well as the species specificity, was detected using an enzyme-linked immunosorbent assay (ELISA). The specific method is as follows: human PD-L1, cynomolgus PD-L1, rat PD-L1, mouse PD-L1, human CD40, cynomolgus CD40, rat CD40, and mouse CD40 antigens (all purchased from ACROBiosystems) were coated with 1 μg/mL carbonate buffer (pH=9.6) in an ELISA plate at 100 μL per well, followed by incubation at 4° C. overnight. The wells were washed 5 times with PBST. 300 μL/well of PBST containing 1% BSA was added to block the wells, and the plate was incubated at room temperature for 1 hour. The wells were washed 5 times with PBST. […] The wells were washed 5 times with PBST. […] The wells were washed 5 times with PBST. Colorimetric substrate TMB was added at 100 μL per well and allowed to develop color at room temperature for 10 minutes, followed by the addition of 1 M sulfuric acid to terminate the reaction. The OD_{450 nm} was read on a microplate reader to analyze the results, and the EC₅₀ was calculated using a 4-parameter fit binding curve.
(§2) These bispecific antibodies are not able to bind to rat PD-L1 and CD40 or mouse PD-L1 and CD40.

For assay [3], the target named is T3, rat CD40 antigen (ACROBiosystems) (rat, UniProt A6JXD6 20-193).
T3 construct: Bought antigen coated on ELISA plates; construct not described
T3 sequence: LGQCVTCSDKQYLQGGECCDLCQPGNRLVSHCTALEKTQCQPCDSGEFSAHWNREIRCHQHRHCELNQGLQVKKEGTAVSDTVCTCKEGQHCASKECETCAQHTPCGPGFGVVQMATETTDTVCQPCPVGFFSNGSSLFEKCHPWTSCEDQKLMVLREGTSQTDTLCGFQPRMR
As to the kind of experiment: ELISA, coated antigen. As to the method: as §1, §2

Assay [4] deals with T4, human PD-L1 antigen (ACROBiosystems) (human, UniProt Q9NZQ7 19-238).
T4 construct: Bought antigen coated on ELISA plates
The assay can be described thus: ELISA, coated antigen. Here is the method: as §1, §2

In assay [5] the target is T1, human CD40 antigen (ACROBiosystems). The assay can be described thus: ELISA, coated antigen. As to the method: as §1, §2
The target of assay [6] is T5, mouse CD40 antigen (ACROBiosystems) (mouse, UniProt P27512 24-193, limits assumed).
T5 construct: Bought antigen coated on ELISA plates; construct not described
The assay can be described thus: ELISA, coated antigen. Here is the method: as §1, §2

For assay [7], the target named is T6, cynomolgus PD-L1 antigen (ACROBiosystems) (cynomolgus, UniProt G7PSE7 19-238).
T6 construct: Bought antigen coated on ELISA plates; construct not described
The assay can be described thus: ELISA, coated antigen. As to the method: as §1, §2

Assay [8] deals with T7, rat PD-L1 antigen (ACROBiosystems) (rat, UniProt D4AE25 19-239).
T7 construct: Bought antigen coated on ELISA plates; construct not described
As to the kind of experiment: ELISA, coated antigen. As to the method: as §1, §2

The target in assay [9] is T8, cynomolgus CD40 antigen (ACROBiosystems) (cynomolgus, UniProt G7PG38 21-193).
T8 construct: Bought antigen coated on ELISA plates; construct not described
As to the kind of experiment: ELISA, coated antigen. As to the method: as §1, §2

Assay [10] addresses T9, CD40 on HEK-Blue CD40L cells (InvivoGen) (UniProt P25942 21-277, limits assumed).
T9 construct: whole, on cells; also called HEK-Blue CD40L cells that highly express CD40
As to the kind of experiment: flow cytometry, competition with 10 nM Biotin-CD40L on HEK-Blue CD40L cells. Here is the method: The blocking effect of bispecific antibodies on CD40/CD40L binding was tested using HEK-Blue CD40L cells that highly express CD40. The specific method is as follows: HEK-Blue CD40L cells were collected and resuspended in pre-cooled PBS containing 2% FBS at a density of 1E7 cells/mL, and then added to a 96-well plate at 50 μL per well, i.e., 5E5 cells/well. Biotin-CD40L (FutureGen Biopharmaceutical) and serially diluted bispecific antibody were then added at 50 μL per well, with a final concentration of Biotin-CD40L of 10 nM, and the plate was incubated at 4° C. for 1 hour. The wells were washed twice with pre-cooled PBS. Streptavidin-PE (BioLegend, Cat. No. 405203) diluted in pre-cooled PBS containing 2% FBS was added, and the plate was incubated at 4° C. for 30 minutes. The wells were washed twice with pre-cooled PBS. The cells were then resuspended in pre-cooled PBS containing 2% FBS and assayed by flow cytometry.
(A flow cytometer gives signals particle by particle.)

Assay [11] concerns the target T9, CD40 on HEK-Blue CD40L cells (InvivoGen). The assay can be described thus: cell-based or functional assay.

Substitutions are numbered along the chain they refer to. Names may count otherwise.

T7 sequence (D4AE25 entry or part of it limits assumed): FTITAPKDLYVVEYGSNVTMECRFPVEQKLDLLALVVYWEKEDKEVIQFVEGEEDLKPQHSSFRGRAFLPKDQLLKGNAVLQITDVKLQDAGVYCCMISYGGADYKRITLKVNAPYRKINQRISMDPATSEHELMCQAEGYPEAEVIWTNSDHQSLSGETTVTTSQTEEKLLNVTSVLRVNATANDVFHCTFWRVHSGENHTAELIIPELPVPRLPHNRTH
T9 sequence (P25942 21-277 limits assumed): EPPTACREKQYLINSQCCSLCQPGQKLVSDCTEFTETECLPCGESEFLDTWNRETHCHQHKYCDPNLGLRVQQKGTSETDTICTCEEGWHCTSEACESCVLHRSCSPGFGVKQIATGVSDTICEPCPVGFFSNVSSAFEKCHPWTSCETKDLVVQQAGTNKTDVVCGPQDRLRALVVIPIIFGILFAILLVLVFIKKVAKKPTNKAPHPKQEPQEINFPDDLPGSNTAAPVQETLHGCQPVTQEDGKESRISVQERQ
T6 sequence (G7PSE7 entry or part of it): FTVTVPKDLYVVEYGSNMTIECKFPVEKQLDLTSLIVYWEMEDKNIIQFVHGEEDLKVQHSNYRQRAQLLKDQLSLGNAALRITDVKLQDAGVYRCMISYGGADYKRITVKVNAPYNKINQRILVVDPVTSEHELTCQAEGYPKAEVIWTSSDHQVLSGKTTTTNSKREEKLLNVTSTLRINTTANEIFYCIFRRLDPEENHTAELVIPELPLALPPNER
T5 sequence (P27512 24-193 limits assumed): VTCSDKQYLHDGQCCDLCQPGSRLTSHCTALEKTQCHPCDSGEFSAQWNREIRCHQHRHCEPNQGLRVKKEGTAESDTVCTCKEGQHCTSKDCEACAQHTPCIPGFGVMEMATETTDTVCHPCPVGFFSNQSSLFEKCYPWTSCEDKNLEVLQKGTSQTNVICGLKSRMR
T1 sequence (P25942 21-193 limits assumed): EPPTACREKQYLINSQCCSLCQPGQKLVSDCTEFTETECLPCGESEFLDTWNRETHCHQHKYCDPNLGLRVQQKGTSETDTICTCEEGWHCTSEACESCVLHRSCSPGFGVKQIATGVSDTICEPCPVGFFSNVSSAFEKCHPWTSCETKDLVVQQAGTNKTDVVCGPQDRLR
T4 sequence (Q9NZQ7 19-238 limits assumed): as the sequence (G7PSE7 entry or part of it) above, with T33A, S34A, N62S, Q68R, R82Q, L173F, A185T, I192T, L215H counted along it
T2 sequence (Q9EP73 19-239 limits assumed): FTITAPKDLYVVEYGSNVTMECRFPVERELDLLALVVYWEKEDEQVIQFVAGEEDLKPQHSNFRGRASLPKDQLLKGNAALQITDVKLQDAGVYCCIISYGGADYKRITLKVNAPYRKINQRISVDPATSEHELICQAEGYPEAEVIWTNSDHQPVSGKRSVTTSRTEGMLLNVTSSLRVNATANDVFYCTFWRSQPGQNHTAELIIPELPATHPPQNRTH

B1: anti-PD-L1/CD40 bispecific antibody 1609 (bispecific antibody, human IgG2, kappa)
light: DIQMTQSPSSLSASVGDRVTITCRASQTISSYLNWYQQKPGKAPKLLIYYTSTLQSGVPSRFSGSGSGTDYTLTISSLQPEDFATYYCQQGNAYPWTFGGGTKVEIKRTVAAPSVFIFPPSDEQLKSGTASVVCLLNNFYPREAKVQWKVDNALQSGNSQESVTEQDSKDSTYSLSSTLTLSKADYEKHKVYACEVTHQGLSSPVTKSFNRGEC
heavy: EVQLVESGGGLVQPGGSLRLSCAASGFTFSNYYMSWVRQAPGKGLEWVGFIRNKANGYTTEYAASVKGRFTISRDNSKSTLYLQMNSLRAEDTAVYYCARYGGLKIGWYFDLWGQGTLVTVSSASTKGPSVFPLAPCSRSTSESTAALGCLVKDYFPEPVTVSWNSGALTSGVHTFPAVLQSSGLYSLSSVVTVPSSNFGTQTYTCNVDHKPSNTKVDKTVERKCCVECPPCPAPPVAGPSVFLFPPKPKDTLMISRTPEVTCVVVDVSHEDPEVQFNWYVDGVEVHNAKTKPREEQFNSTFRVVSVLTVVHQDWLNGKEYKCKVSNKGLPAPIEKTISKTKGQPREPQVYTLPPSREEMTKNQVSLTCLVKGFYPSDIAVEWESNGQPENNYKTTPPMLDSDGSFFLYSKLTVDKSRWQQGNVFSCSVMHEALHNHYTQKSLSLSPGGGGGSGGGGSGGGGSGEVQLVESGGGLVQPGGSLRLSCAASGFTFDYYTQCWFRQAPGKEREWVSCISSSEGSTYYADSVKGRFTISRDNSKNTVYLQMNSLKTEDTAVYYCAARKGGPLTIENFFDYWGQGTQVTVSS
notes: First polypeptide chain = anti-CD40 light chain; second polypeptide chain = anti-CD40 heavy chain with the 1541 VHH joined to its C-terminus by a G4S linker
As to B1, the EC50 (commonly the concentration at which the effect is half-maximal) in assay [1] was 0.039 nM; in assay [4], 0.034 nM; in assay [5], 0.021 nM; in [7] it was 0.016 nM; in [9], 0.019 nM. Besides, the binding result in assay [2], in [3], in [6] and in [8] was “no binding” throughout. For the same molecule, the concentration for half-maximal inhibition (IC50) (in general, the concentration at which inhibition is half-maximal) in assay [10] stood at 3.16 nM. Further, the “CD40 agonistic activity (A)/(B) Ratio, EC50 without over with CHO/PD-L1” value in [11] stood at 28. For the same molecule, the “CD40 agonistic activity EC50 (nM) with CHO/PD-L1 (B), SEAP reporter” value in assay [11] is 0.02 nM. For the same molecule, the “CD40 agonistic activity EC50 (nM) without CHO/PD-L1 (A), SEAP reporter” value in [11] is 0.556 nM.

B2: anti-PD-L1/CD40 bispecific antibody 1655 (bispecific antibody, human IgG2, kappa)
light: B1 light
heavy: B1 heavy with G57A
notes: as for B1
On to B2, for which the EC50 worked out at 0.039 nM in [1]; 0.039 nM in [4]; 0.025 nM in assay [5]; 0.023 nM in [7]; 0.006 nM in assay [9]. Besides, the binding result in assay [2], in [3], in [6] and in assay [8] was “no binding” throughout. In [10], this molecule displayed an IC50 of 8.63 nM. In addition, the “CD40 agonistic activity (A)/(B) Ratio, EC50 without over with CHO/PD-L1” value in assay [11] is 25.3. The “CD40 agonistic activity EC50 (nM) with CHO/PD-L1 (B), SEAP reporter” value in assay [11] is 0.027 nM. The “CD40 agonistic activity EC50 (nM) without CHO/PD-L1 (A), SEAP reporter” value in assay [11] stood at 0.686 nM.

B3: anti-PD-L1/CD40 bispecific antibody 1652 (bispecific antibody, human IgG2, kappa)
light: B1 light with T28D, S30R, S31N, T53R, L54R, Q55D, Y87F, N92K, A93T, Y94L
heavy: B1 heavy with N31D, G57A, S79N, K105R, I106Q, L112V
notes: as for B1
Consider B3, for which the concentration for a half-maximal effect (EC50) is 0.032 nM in [1]; 0.035 nM in assay [4]; 0.021 nM in assay [5]; 0.018 nM in [7]; 0.017 nM in assay [9]. Further, the binding result in assay [2], in assay [3], in assay [6] and in assay [8] was “no binding” each time. The IC50 in [10] is 0.852 nM. Besides, in assay [11], the “CD40 agonistic activity (A)/(B) Ratio, EC50 without over with CHO/PD-L1” value came to 4.1. In [11], the “CD40 agonistic activity EC50 (nM) with CHO/PD-L1 (B), SEAP reporter” value stood at 0.022 nM. Also, the “CD40 agonistic activity EC50 (nM) without CHO/PD-L1 (A), SEAP reporter” value in [11] is 0.092 nM.

B4: anti-PD-L1/CD40 bispecific antibody 1654 (bispecific antibody, human IgG2, kappa)
light: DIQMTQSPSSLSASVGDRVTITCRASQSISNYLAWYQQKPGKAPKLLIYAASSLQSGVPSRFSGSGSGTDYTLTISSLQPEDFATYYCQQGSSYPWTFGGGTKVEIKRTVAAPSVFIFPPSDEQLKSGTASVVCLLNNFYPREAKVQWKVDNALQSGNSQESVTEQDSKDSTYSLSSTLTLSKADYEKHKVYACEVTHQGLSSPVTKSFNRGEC
heavy: B1 heavy with G57A, S87R, I106V
notes: as for B1
Take B4: the EC50 in [1] worked out at 0.026 nM; in assay [4], 0.031 nM; in assay [5], 0.013 nM; in assay [7] it was 0.045 nM; in assay [9], 0.013 nM. For the same molecule, the binding result in assay [2], in assay [3], in [6] and in assay [8] was “no binding” throughout. In assay [10], this molecule showed a concentration for half-maximal inhibition (IC50) of 7.7 nM. In [11], the “CD40 agonistic activity (A)/(B) Ratio, EC50 without over with CHO/PD-L1” value came to 23.2. In addition, in assay [11], the “CD40 agonistic activity EC50 (nM) with CHO/PD-L1 (B), SEAP reporter” value turned out to be 0.027 nM. In [11], the “CD40 agonistic activity EC50 (nM) without CHO/PD-L1 (A), SEAP reporter” value stood at 0.633 nM.

(Values after patent publication US20250376533A1 (FUTUREGEN BIOPHARMACEUTICAL BEIJING, published 2025).)
